This note sets out measurements from patent US12630618 (GEORGIA TECH RESEARCH, dated 2026).

The test addresses T1, human myocilin OLF (hMyoc-OLF), cleaved from its fusion tag (human, UniProt Q99972 244-503, limits assumed).
T1 construct: In Western blots the protein is denatured; also called hOLF; cleaved human myocilin OLF
T1 sequence: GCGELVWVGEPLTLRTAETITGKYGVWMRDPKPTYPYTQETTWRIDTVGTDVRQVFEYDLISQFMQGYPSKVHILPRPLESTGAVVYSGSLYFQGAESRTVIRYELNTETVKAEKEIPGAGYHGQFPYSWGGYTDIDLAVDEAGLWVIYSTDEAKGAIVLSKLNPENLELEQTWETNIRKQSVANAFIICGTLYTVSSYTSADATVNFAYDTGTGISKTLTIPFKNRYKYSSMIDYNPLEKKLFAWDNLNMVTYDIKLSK
The test can be described thus: Western blot, denatured hMyoc-OLF, IgG.

B1: Monoclonal Antibody OLF2 (antibody, V domains shown)
VH: DVKLVESGGGLVKPGGSLKLSCAASGFTFSSYAMSWVRQTPDKRLEWVATISSGGSYTYYPDSVKGRFTISRDNAKNTLYLQMSSLKSEDTAMYYCARLGGGIFAYWGQGTLVTVSA
VL: DVLMTQTPLSLPVSLGDQASISCRSSQSIVHSNGNTYLEWYLQKPGQSPKLLIYKVSNRFSGVPDRFSGSGSGTDFTLKISRVEAEDLGVYYCFQGSHVPLTFGAGTKLEIKR
notes: also called anti-OLF2
As to B1, the binding result was “binds”.
